Source: patent US20190345446A1 (BROAD INSTITUTE, published 2019)

How the values were obtained:
[1] = target: T1, STAT3 (mouse, endogenous) (mouse, UniProt P42227 2-770); assay: co-immunoprecipitation with anti-Fas antibody and Protein G beads from EL4 mouse T cell line, Western blot
T1 construct: Endogenous intracellular protein
Procedure: (§1) For DISC assembly, 1*10⁸ EL4 cells or 5-7*10⁷ MACS sorted primary mouse CD4 cells were stimulated for 15 minutes with either biotinylated anti-Fas antibody (Jo2, 2.5 μg/ml) and streptavidin ([…], Thermo Scientific) or with multimerized recombinant human Fas ligand (aa 139-281) fused at the N-terminus to mouse ACRP30headless (aa 18-111) and a FLAG-tag (MegaFasL, Adipogen) at a final concentration of 100 ng/ml as indicated in the figure legends. MegaFasL was dissolved in H₂O that was used as vehicle. For immunoprecipitation (IP) experiments, cells were then washed twice with ice-cold PBS, lysed in ice-cold IP buffer containing 30 mM Tris HCL, 1% Triton-X100, 150 mM NaCl, 2 mM EDTA, 10% glycerol, 1 mM PMSF, phosphatase inhibitors (HALT, Thermo Scientific) and protease inhibitors (Roche). Immuoprecipitation was performed immediately after lysis using protein G magnetic Dynabeads (Life Technologies) with three consecutive washes with IP buffer. For phosphorylation studies, sorted naïve T cells were stimulated with the cytokines as indicated, then washed with PBS, and either lysed in IP buffer or cytoplasmic and nuclear fractions were extracted using NE-PER reagents (Thermo Scientific) following the manufacturer's protocol. […]

[2] = target: T2, STAT4 (mouse, endogenous) (mouse, UniProt P42228 1-749); assay: as above
T2 construct: Endogenous intracellular protein
T2 sequence (looked up): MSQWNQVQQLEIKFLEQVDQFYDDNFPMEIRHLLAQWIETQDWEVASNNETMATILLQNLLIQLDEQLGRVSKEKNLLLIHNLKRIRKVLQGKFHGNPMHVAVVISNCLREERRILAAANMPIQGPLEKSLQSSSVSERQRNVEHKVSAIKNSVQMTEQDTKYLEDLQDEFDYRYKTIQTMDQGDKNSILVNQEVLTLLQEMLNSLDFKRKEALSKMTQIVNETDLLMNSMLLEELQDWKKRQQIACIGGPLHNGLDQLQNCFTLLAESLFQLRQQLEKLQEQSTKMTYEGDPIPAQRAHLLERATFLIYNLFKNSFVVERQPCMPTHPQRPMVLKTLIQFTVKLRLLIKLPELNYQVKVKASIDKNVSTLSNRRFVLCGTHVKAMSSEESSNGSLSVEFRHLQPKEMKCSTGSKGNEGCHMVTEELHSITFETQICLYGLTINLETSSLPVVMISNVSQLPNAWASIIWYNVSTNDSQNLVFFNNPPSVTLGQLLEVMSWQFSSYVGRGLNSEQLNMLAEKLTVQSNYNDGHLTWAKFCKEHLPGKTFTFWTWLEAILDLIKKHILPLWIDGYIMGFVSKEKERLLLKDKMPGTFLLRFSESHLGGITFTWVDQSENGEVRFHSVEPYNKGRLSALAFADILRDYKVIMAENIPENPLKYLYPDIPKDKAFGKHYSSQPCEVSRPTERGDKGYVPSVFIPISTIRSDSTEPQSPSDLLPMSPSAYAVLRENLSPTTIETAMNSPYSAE
Procedure: as §1

T1 sequence (P42227 2-770 limits assumed): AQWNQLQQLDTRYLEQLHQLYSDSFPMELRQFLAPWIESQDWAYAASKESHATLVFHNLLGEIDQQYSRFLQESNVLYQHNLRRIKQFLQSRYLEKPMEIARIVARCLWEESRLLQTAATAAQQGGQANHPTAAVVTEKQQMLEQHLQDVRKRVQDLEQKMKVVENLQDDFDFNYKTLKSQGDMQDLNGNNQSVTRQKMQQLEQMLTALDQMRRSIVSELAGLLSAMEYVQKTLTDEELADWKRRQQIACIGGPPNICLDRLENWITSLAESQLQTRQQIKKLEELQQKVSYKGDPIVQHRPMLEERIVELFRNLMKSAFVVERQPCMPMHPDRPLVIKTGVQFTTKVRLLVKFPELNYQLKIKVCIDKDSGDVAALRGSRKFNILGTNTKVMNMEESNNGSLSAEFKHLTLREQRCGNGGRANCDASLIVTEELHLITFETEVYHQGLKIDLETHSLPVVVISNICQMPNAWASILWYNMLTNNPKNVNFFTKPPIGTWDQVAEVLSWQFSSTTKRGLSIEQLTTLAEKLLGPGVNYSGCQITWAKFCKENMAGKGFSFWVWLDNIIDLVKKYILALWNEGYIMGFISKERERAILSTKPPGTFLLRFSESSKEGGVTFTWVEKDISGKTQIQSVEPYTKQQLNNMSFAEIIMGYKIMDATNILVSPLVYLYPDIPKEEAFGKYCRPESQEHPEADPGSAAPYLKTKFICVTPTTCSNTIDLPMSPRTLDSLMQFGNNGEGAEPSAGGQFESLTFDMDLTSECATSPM

B1: Fas (mouse death receptor Fas, endogenous in EL4 cells and primary mouse CD4+ T cells) (receptor, UniProt P25446 22-327, looked up)
chain: QGTNSISESLKLRRRVRETDKNCSEGLYQGGPFCCQPCQPGKKKVEDCKMNGGTPTCAPCTEGKEYMDKNHYADKCRRCTLCDEEHGLEVETNCTLTQNTKCKCKPDFYCDSPGCEHCVRCASCEHGTLEPCTATSNTNCRKQSPRNRLWLLTILVLLIPLVFIYRKYRKRKCWKRRQDDPESRTSSRETIPMNASNLSLSKYIPRIAEDMTIQEAKKFARENNIKEGKIDEIMHDSIQDTAEQKVQLLLCWYQSHGKSDAYQDLIKGLKKAECRRTLDKFQDMVQKDLGKSTPDTGNENEGQCLE
notes: whole, on cells; Endogenous protein; also called Fas receptor; CD95
Question: Does B1 bind [1]?
Answer: no binding

Question: Does B1 bind [2]?
Answer: no binding
